Measurements taken from patent US20230212549A1, “COMPOUNDS COMPRISING A […] LIGAND AND USE THEREOF” (priority 2021, published 2023).
Numbered stars: 1 amine (or outer) side, 2 acyl side, 3 side chain; on linkers, the order of the positions; unused ones are H or OH. Bridge positions count the residues as written; N and C are the ends. Square brackets hold non-standard residues; d marks the D form. Primed or numbered codes have the meaning given here. Side chains are listed from the residue outwards. * marks the point of attachment. tMeBn(DOTA-PP) = 1,3,5-trimethylbenzylidene, two thioethers to Cys, third CH2 bound to one N of piperazine whose other N bears DOTA, O=C(O)CN1CCN(CC(=O)O)CCN(CC(=O)N2CCN(Cc3cc(C[*:1])cc(C[*:2])c3)CC2)CCN(CC(=O)O)CC1; Ttds″ = 1,13-diamino-4,7,10-trioxatridecan-succinamic acid spacer, O=C(CCC(=O)[*:2])NCCCOCCOCCOCCCN[*:1]; Ttds(6) = 1,13-Diamino-4,7,10-trioxatridecan-succinamic acid, O=C(CCC(=O)[*:2])NCCCOCCOCCOCCCN[*:1]; 3MeBn″ = 3-methylbenzylidene (meta-xylylene bridge from alpha,alpha'-dibromo-m-xylene); 3MeBn = 3-Methylbenzylidene (m-xylylene thioether bridge from α,α′-dibromo-m-xylene); N4Ac = 6-Carboxy-1,4,8,11-tetraazaundecane, an N4-chelator, NCCNCC(CNCCN)C(=O)*; APAc = 2-(4-(Amino)piperidin-1-yl)acetic acid, O=C(CN1CCC(N[*:1])CC1)[*:2]; 3MeBn(3) = 3-methylbenzylidene (m-xylylene), from α,α′-dibromo-m-xylene; Biotin = O=C1N[C@H]2[C@H](CS[C@H]2CCCCC(=O)*)N1; Bip = N[C@@H](Cc1ccc(-c2ccccc2)cc1)C(=O)O; γGlu = O=C(O)[C@H](CCC(=O)[*:2])N[*:1]; Met(O2) = CS(=O)(=O)CC[C@H](N)C(=O)O; mXylylene = c1cc(C[*:1])cc(C[*:2])c1; NMeE = CN[C@@H](CCC(=O)O)C(=O)O; DOTA′ = not defined here; Nle = CCCC[C@H](N)C(=O)O; Nphe = O=C(O)CNCc1ccccc1; Apr = not defined here; Hexanoyl = CCCCCC(=O)*; Nleu = CC(C)CNCC(=O)O; Nlys = NCCCCNCC(=O)O; Mpa = O=C(O)CCS

B1: [3MeBn-Spa-Pro-Pro-Thr-Gln-Phe-Cys]-Asp-NH2 (peptide)
peptide: [Mpa]PPTQFCD-NH2
modifications: linker 1-7 via mXylylene
SMILES: C[C@@H](O)[C@@H]1NC(=O)[C@@H]2CCCN2C(=O)[C@@H]2CCCN2C(=O)CCSCc2cccc(c2)CSC[C@@H](C(=O)N[C@@H](CC(=O)O)C(N)=O)NC(=O)[C@H](Cc2ccccc2)NC(=O)[C@H](CCC(N)=O)NC1=O
B2: H-Met-[Cys(3MeBn)-Pro-Pro-Thr-Glu-Phe-Cys]-Asp-His-Phe-Arg-Asp-Ttds-Lys(Bio)-NH2 (peptide)
peptide: H-MCPPTEFCDHFRD[Ttds″]K(Biotin)-NH2
modifications: linker 2-8 via mXylylene
SMILES: CSCC[C@H](N)C(=O)N[C@H]1CSCc2cccc(c2)CSC[C@@H](C(=O)N[C@@H](CC(=O)O)C(=O)N[C@@H](Cc2c[nH]cn2)C(=O)N[C@@H](Cc2ccccc2)C(=O)N[C@@H](CCCNC(=N)N)C(=O)N[C@@H](CC(=O)O)C(=O)NCCCOCCOCCOCCCNC(=O)CCC(=O)N[C@@H](CCCCNC(=O)CCCC[C@@H]2SC[C@@H]3NC(=O)N[C@@H]32)C(N)=O)NC(=O)[C@H](Cc2ccccc2)NC(=O)[C@H](CCC(=O)O)NC(=O)[C@H]([C@@H](C)O)NC(=O)[C@@H]2CCCN2C(=O)[C@@H]2CCCN2C1=O
B3: Hex-[Cys(3MeBn)-Nleu-Pro-Thr-Gln-Phe-Cys]-NH2 (peptide)
peptide: Hexanoyl-C[Nleu]PTQFC-NH2
modifications: linker 1-7 via mXylylene
SMILES: CCCCCC(=O)N[C@H]1CSCc2cccc(c2)CSC[C@@H](C(N)=O)NC(=O)[C@H](Cc2ccccc2)NC(=O)[C@H](CCC(N)=O)NC(=O)[C@H]([C@@H](C)O)NC(=O)[C@@H]2CCCN2C(=O)CN(CC(C)C)C1=O
B4: Hex-[Cys(tMeBn(DOTA-PP))-Thr-Gln-Pro-Phe-Pro-Cys]-Asp-NH2 (peptide)
peptide: Hexanoyl-CTQPFPCD-NH2
modifications: linker 1-7 via tMeBn(DOTA-PP)
SMILES: CCCCCC(=O)N[C@H]1CSCc2cc(cc(CN3CCN(C(=O)CN4CCN(CC(=O)O)CCN(CC(=O)O)CCN(CC(=O)O)CC4)CC3)c2)CSC[C@@H](C(=O)N[C@@H](CC(=O)O)C(N)=O)NC(=O)[C@@H]2CCCN2C(=O)[C@H](Cc2ccccc2)NC(=O)[C@@H]2CCCN2C(=O)[C@H](CCC(N)=O)NC(=O)[C@H]([C@@H](C)O)NC1=O
B5: Hex-[Cys(tMeBn(DOTA-PP))-Pro-Thr-Pro-Phe-Gln-Cys]-Asp-NH2 (peptide)
peptide: Hexanoyl-CPTPFQCD-NH2
modifications: linker 1-7 via tMeBn(DOTA-PP)
SMILES: CCCCCC(=O)N[C@H]1CSCc2cc(cc(CN3CCN(C(=O)CN4CCN(CC(=O)O)CCN(CC(=O)O)CCN(CC(=O)O)CC4)CC3)c2)CSC[C@@H](C(=O)N[C@@H](CC(=O)O)C(N)=O)NC(=O)[C@H](CCC(N)=O)NC(=O)[C@H](Cc2ccccc2)NC(=O)[C@@H]2CCCN2C(=O)[C@H]([C@@H](C)O)NC(=O)[C@@H]2CCCN2C1=O
B6: Hex-[Cys(3MeBn)-Nphe-Pro-Thr-Gln-Phe-Cys]-NH2 (peptide)
peptide: Hexanoyl-C[Nphe]PTQFC-NH2
modifications: linker 1-7 via mXylylene
SMILES: CCCCCC(=O)N[C@H]1CSCc2cccc(c2)CSC[C@@H](C(N)=O)NC(=O)[C@H](Cc2ccccc2)NC(=O)[C@H](CCC(N)=O)NC(=O)[C@H]([C@@H](C)O)NC(=O)[C@@H]2CCCN2C(=O)CN(Cc2ccccc2)C1=O
B7: N4Ac-gGlu-Nle-[Cys-(3MeBn)-Pro-Pro-Thr-Glu-Phe-Cys]-OH (peptide)
peptide: N4Ac-[γGlu][Nle]CPPTEFC-OH
modifications: linker 3-9 via mXylylene
SMILES: CCCC[C@H](NC(=O)CC[C@H](NC(=O)C(CNCCN)CNCCN)C(=O)O)C(=O)N[C@H]1CSCc2cccc(c2)CSC[C@@H](C(=O)O)NC(=O)[C@H](Cc2ccccc2)NC(=O)[C@H](CCC(=O)O)NC(=O)[C@H]([C@@H](C)O)NC(=O)[C@@H]2CCCN2C(=O)[C@@H]2CCCN2C1=O
B8: Hex-[Cys(tMeBn(DOTA-PP))-Phe-Gln-Thr-Pro-Pro-Cys]-Asp-NH2 (peptide)
peptide: Hexanoyl-CFQTPPCD-NH2
modifications: linker 1-7 via tMeBn(DOTA-PP)
SMILES: CCCCCC(=O)N[C@H]1CSCc2cc(cc(CN3CCN(C(=O)CN4CCN(CC(=O)O)CCN(CC(=O)O)CCN(CC(=O)O)CC4)CC3)c2)CSC[C@@H](C(=O)N[C@@H](CC(=O)O)C(N)=O)NC(=O)[C@@H]2CCCN2C(=O)[C@@H]2CCCN2C(=O)[C@H]([C@@H](C)O)NC(=O)[C@H](CCC(N)=O)NC(=O)[C@H](Cc2ccccc2)NC1=O
B9: Hex-[Cys(3MeBn)-Nlys-Pro-Thr-Gln-Phe-Cys]-NH2 (peptide)
peptide: Hexanoyl-C[Nlys]PTQFC-NH2
modifications: linker 1-7 via mXylylene
SMILES: CCCCCC(=O)N[C@H]1CSCc2cccc(c2)CSC[C@@H](C(N)=O)NC(=O)[C@H](Cc2ccccc2)NC(=O)[C@H](CCC(N)=O)NC(=O)[C@H]([C@@H](C)O)NC(=O)[C@@H]2CCCN2C(=O)CN(CCCCN)C1=O
B10: N4Ac-Ttds-Glu(AGLU′)-Nle-[Cys-(3MeBn)-Pro-Pro-Thr-Glu-Phe-Cys]-OH (peptide)
peptide: N4Ac-[Ttds(6)]E[Nle]CPPTEFC-OH
modifications: linker 4-10 via 3MeBn; not fully specified (residue 2); printed as N4Ac-Ttds-Glu(AGLU′)-Nle-[Cys-(3MeBn)-Pro-Pro-Thr-Glu-Phe-Cys]-OH
B11: Hex-[Cys(3MeBn)-Pro-Pro-Thr-Glu(NH-Apr-DOTA′)-Phe-Cys]-Asp-NH2 (peptide)
peptide: Hexanoyl-CPPTE([Apr-DOTA′])FCD-NH2
modifications: linker 1-7 via mXylylene; reading uncertain; also: printed as Hex-[Cys(3MeBn)-Pro-Pro-Thr-Glu(NH-Apr-DOTA′)-Phe-Cys]-Asp-NH2
B12: Hex-[Cys(3MeBn)-Pro-Pro-Thr-Glu-Nphe-Cys]-NH2 (peptide)
peptide: Hexanoyl-CPPTE[Nphe]C-NH2
modifications: linker 1-7 via mXylylene
SMILES: CCCCCC(=O)N[C@H]1CSCc2cccc(c2)CSC[C@@H](C(N)=O)NC(=O)CN(Cc2ccccc2)C(=O)[C@H](CCC(=O)O)NC(=O)[C@H]([C@@H](C)O)NC(=O)[C@@H]2CCCN2C(=O)[C@@H]2CCCN2C1=O
B13: Hex-[Cys(3MeBn)-Pro-Pro-Thr-Ala-Phe-Cys]-NH2 (peptide)
peptide: Hexanoyl-CPPTAFC-NH2
modifications: linker 1-7 via mXylylene
SMILES: CCCCCC(=O)N[C@H]1CSCc2cccc(c2)CSC[C@@H](C(N)=O)NC(=O)[C@H](Cc2ccccc2)NC(=O)[C@H](C)NC(=O)[C@H]([C@@H](C)O)NC(=O)[C@@H]2CCCN2C(=O)[C@@H]2CCCN2C1=O
B14: Hex-[Cys(3MeBn)-Pro-Pro-Ala-Glu-Phe-Cys]-NH2 (peptide)
peptide: Hexanoyl-CPPAEFC-NH2
modifications: linker 1-7 via mXylylene
SMILES: CCCCCC(=O)N[C@H]1CSCc2cccc(c2)CSC[C@@H](C(N)=O)NC(=O)[C@H](Cc2ccccc2)NC(=O)[C@H](CCC(=O)O)NC(=O)[C@H](C)NC(=O)[C@@H]2CCCN2C(=O)[C@@H]2CCCN2C1=O
B15: Hex-[Cys(3MeBn)-Pro-Pro-Thr-Nme-Phe-Cys]-NH2 (peptide)
peptide: Hexanoyl-CPPT[NMeE]FC-NH2
modifications: linker 1-7 via mXylylene
SMILES: CCCCCC(=O)N[C@H]1CSCc2cccc(c2)CSC[C@@H](C(N)=O)NC(=O)[C@H](Cc2ccccc2)NC(=O)[C@H](CCC(=O)O)N(C)C(=O)[C@H]([C@@H](C)O)NC(=O)[C@@H]2CCCN2C(=O)[C@@H]2CCCN2C1=O
B16: Hex-[Cys(3MeBn)-Pro-Pro-Thr-Moo-Phe-Cys]-NH2 (peptide)
peptide: Hexanoyl-CPPT[Met(O2)]FC-NH2
modifications: linker 1-7 via mXylylene
SMILES: CCCCCC(=O)N[C@H]1CSCc2cccc(c2)CSC[C@@H](C(N)=O)NC(=O)[C@H](Cc2ccccc2)NC(=O)[C@H](CCS(C)(=O)=O)NC(=O)[C@H]([C@@H](C)O)NC(=O)[C@@H]2CCCN2C(=O)[C@@H]2CCCN2C1=O
B17: Hex-[Cys(3MeBn)-Pro-Pro-Thr-Glu-Bip-Cys]-NH2 (peptide)
peptide: Hexanoyl-CPPTE[Bip]C-NH2
modifications: linker 1-7 via mXylylene
SMILES: CCCCCC(=O)N[C@H]1CSCc2cccc(c2)CSC[C@@H](C(N)=O)NC(=O)[C@H](Cc2ccc(-c3ccccc3)cc2)NC(=O)[C@H](CCC(=O)O)NC(=O)[C@H]([C@@H](C)O)NC(=O)[C@@H]2CCCN2C(=O)[C@@H]2CCCN2C1=O
B18: Hex-[Cys(3MeBn)-Ala-Pro-Thr-Glu-Phe-Cys]-NH2 (peptide)
peptide: Hexanoyl-CAPTEFC-NH2
modifications: linker 1-7 via mXylylene
SMILES: CCCCCC(=O)N[C@H]1CSCc2cccc(c2)CSC[C@@H](C(N)=O)NC(=O)[C@H](Cc2ccccc2)NC(=O)[C@H](CCC(=O)O)NC(=O)[C@H]([C@@H](C)O)NC(=O)[C@@H]2CCCN2C(=O)[C@H](C)NC1=O
B19: Hex-[Cys(3MeBn)-Pro-Pro-Thr-Glu-Ala-Cys]-NH2 (peptide)
peptide: Hexanoyl-CPPTEAC-NH2
modifications: linker 1-7 via mXylylene
SMILES: CCCCCC(=O)N[C@H]1CSCc2cccc(c2)CSC[C@@H](C(N)=O)NC(=O)[C@H](C)NC(=O)[C@H](CCC(=O)O)NC(=O)[C@H]([C@@H](C)O)NC(=O)[C@@H]2CCCN2C(=O)[C@@H]2CCCN2C1=O

The binders below were run against Recombinant human DPP4 (R&D systems, #9168-SE) (human) (UniProt P27487) (assay: cell-based or functional assay). Details: not given.
Chain of Recombinant human DPP4 (R&D systems, #9168-SE) (human) (P27487 29-766 limits assumed): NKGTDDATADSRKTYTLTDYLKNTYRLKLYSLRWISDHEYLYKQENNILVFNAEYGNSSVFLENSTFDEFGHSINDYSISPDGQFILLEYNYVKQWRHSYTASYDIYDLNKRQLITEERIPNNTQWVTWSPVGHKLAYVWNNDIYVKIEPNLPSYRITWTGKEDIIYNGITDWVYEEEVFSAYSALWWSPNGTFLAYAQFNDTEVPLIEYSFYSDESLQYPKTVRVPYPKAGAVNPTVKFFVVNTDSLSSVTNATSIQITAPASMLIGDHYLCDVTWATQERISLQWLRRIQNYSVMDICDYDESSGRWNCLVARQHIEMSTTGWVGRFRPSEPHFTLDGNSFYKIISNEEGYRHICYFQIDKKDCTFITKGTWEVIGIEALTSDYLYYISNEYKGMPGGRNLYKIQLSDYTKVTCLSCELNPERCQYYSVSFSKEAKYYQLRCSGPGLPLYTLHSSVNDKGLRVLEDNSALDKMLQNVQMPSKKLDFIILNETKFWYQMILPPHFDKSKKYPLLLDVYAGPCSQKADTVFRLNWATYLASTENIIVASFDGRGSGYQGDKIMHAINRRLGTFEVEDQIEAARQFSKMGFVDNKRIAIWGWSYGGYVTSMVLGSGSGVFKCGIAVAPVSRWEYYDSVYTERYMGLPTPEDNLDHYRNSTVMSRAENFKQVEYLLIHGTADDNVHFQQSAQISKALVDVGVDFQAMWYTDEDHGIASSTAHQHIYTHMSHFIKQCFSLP

Binder	pIC50 (DPP4)
B1	< 6 pIC50
B2	< 6 pIC50
Hexanoyl-CPPTEFC-NH2 (linker 1-7 via 3MeBn″) [Hex-[Cys(3MeBn)-Pro-Pro-Thr-Glu-Phe-Cys]-NH2]	< 6 pIC50

Each binder was assayed against recombinant human PREP (R&D systems, #4308-SE) (human) (UniProt P48147) (assay: cell-based or functional assay). Details: not given.
Chain of recombinant human PREP (R&D systems, #4308-SE) (human) (P48147 whole entry): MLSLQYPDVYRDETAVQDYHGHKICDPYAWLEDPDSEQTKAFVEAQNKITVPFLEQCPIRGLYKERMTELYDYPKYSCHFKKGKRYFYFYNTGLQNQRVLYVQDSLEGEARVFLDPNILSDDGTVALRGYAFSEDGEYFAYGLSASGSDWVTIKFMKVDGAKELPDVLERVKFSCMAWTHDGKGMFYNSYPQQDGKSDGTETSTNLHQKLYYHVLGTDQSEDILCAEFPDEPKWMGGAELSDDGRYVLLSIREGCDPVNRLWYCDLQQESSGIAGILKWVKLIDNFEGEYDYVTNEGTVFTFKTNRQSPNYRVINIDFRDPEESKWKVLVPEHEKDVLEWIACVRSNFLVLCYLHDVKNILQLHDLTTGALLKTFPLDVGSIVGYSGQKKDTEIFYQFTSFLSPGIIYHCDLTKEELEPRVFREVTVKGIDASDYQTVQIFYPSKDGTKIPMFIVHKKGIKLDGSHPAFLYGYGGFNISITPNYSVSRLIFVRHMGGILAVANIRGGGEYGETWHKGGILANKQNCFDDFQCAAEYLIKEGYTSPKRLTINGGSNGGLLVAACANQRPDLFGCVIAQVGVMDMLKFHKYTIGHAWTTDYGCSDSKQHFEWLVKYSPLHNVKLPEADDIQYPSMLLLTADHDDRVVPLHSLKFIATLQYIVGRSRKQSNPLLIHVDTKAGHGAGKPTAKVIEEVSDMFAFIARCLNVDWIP

Binder	pIC50 (PREP)
B1	< 6 pIC50
B2	< 6 pIC50
Hexanoyl-CPPTEFC-NH2 (linker 1-7 via 3MeBn″) [Hex-[Cys(3MeBn)-Pro-Pro-Thr-Glu-Phe-Cys]-NH2]	< 6 pIC50

These binders were tested against human fibroblast activation protein (FAP) on WI-38 fibroblasts (human) (UniProt Q12884) (assay: competitive FACS, WI-38 cells, Cy5-labeled peptide as competitor). Details: not given.

Binder	pIC50 Category (FACS)
B3	< 6 pIC50
N4Ac-[APAc][Nle]CPPTEFC-OH (linker 3-9 via 3MeBn(3)) [N4Ac-APAc-Nle-[Cys-(3MeBn)-Pro-Pro-Thr-Glu-Phe-Cys]-OH]	< 6 pIC50
B4	< 6 pIC50
B5	< 6 pIC50
B6	< 6 pIC50
B7	< 6 pIC50
B8	< 6 pIC50
B9	< 6 pIC50
B10	< 6 pIC50

What follows are binders tested against fibroblast activation protein (FAP) on FAP-expressing human WI-38 fibroblasts (human) (UniProt Q12884) (assay: competitive FACS, WI-38 cells, vs Cy5 tracer m3; D = pIC50 <=6.0). Details: not given.

Binder	pIC50 Category (FACS)
B11	< 6 pIC50
B12	< 6 pIC50
B13	< 6 pIC50
B14	< 6 pIC50
B15	< 6 pIC50
B16	< 6 pIC50
B17	< 6 pIC50

Each binder was assayed against fibroblast activation protein (FAP) on FAP-expressing human WI-38 fibroblasts (human), Q12884 in the same assay as above. Details: remark: other sources report otherwise.

Binder	pIC50 Category (FACS)
B18	< 6 pIC50
B19	< 6 pIC50
